Molecular target: ζ subunit (F420-reductase subunit) of the ACDS CODH subcomplex from Candidatus Ethanoperedens thermophilum (Candidatus Ethanoperedens thermophilum)
Assay: crystal structure

ζ subunit (F420-reductase subunit) of the ACDS CODH subcomplex from Candidatus Ethanoperedens thermophilum (natural protein)
stoichiometry N: 2
